Test results published in patent publication US10618964B2, “Nanobody against IL-6R” (Ablynx N.V., dated 2020).
Residue numbers refer to the chain shown, from its start. One block for each binder: values may come before it.

Assays:
[1] = biological target: T1, native soluble IL-6R in human plasma (human, UniProt P08887); experiment: ELISA 1, periplasmic extract; competitor IL-6; human plasma
Method: (§1) In this ELISA, plasma was used as a source of native soluble IL-6R. By this assay, we aimed to confirm the alphascreen results and to get a view on the cross-reactivity of the clones towards cynomolgous IL-6R. Human plasma (ELISA 1 and ELISA 3) or cynomolgous plasma (ELISA 2) were pre-incubated with a dilution of the periplasmic extract of the clones together with human IL-6 (50 ng/mL). Subsequently, plasma soluble IL-6R was captured on a B-N12 coated plate and bound IL-6 was detected using anti-IL-6 antibody BAF206 and streptavidin-HRP (ELISA 1 and ELISA 2). The ELISA signal dropped when the Nanobody clone could compete with IL-6 for binding to soluble IL-6R. ELISA 3 was a parallel ELISA in which the detection antibody was replaced by anti-IL-6R antibody BAF227 to exclude false positive competitors, which actually compete with B-N12 (e.g. family 2). Depicted in Table C-5 is the ratio of the OD450 value of the test sample versus the blank OD450 (mock sample). Clones were ordered based on ELISA 1 data.

[2] = biological target: soluble IL-6R in cynomolgous plasma (cynomolgus monkey, UniProt A0A2K5WN54); experiment: ELISA 2, periplasmic extract; competitor IL-6; cyno plasma
Method: as §1

[3] = biological target: T1, native soluble IL-6R in human plasma; experiment: ELISA 3, periplasmic extract; competitor BN-12; human plasma
Method: as §1

OD450 ratio sample/blank [1]: 2.04 | OD450 ratio sample/blank [2]: 0.993 | OD450 ratio sample/blank [3]: 1.01
B1: IL6RPMP104E7 (VHH)
VHH: EVQLVESGGGLVQAGGSLRLSCAAGGSIFSINAMGWYRQAPGKQRELVASITSGGSTTYADSVKGRFTISRDNAKDTVYLQMNSLKPEDTAVYYCNAHIRFPFPNDYWGQGTQVTVSS

OD450 ratio sample/blank [1]: 1.27 | OD450 ratio sample/blank [2]: 1.13 | OD450 ratio sample/blank [3]: 1
B2: IL6RPMP106D6 (VHH)
VHH: EVQLVESGGGLVQAGGSLRLSCAASGFTFDDYAIGWFRQAPGKEREGVSCMISSDGSTYYADSVKGRFTISSDNAKNTVYLQMDSLKPEDTAVYYCAADLSLYGCYVGDRDLYDYDYWGQGTQVTVSS

OD450 ratio sample/blank [1]: 1.34 | OD450 ratio sample/blank [2]: 0.838 | OD450 ratio sample/blank [3]: 1.03
B3: IL6RPMP104E4 (VHH)
VHH: EVQLVESGGGTVQAGGSLKLSCAASGRTFTNYAMGWFRQAPGKEREFVAAIAYATHFADSVKGRFTISRGNAKNTVYLQMNSLKPEDTAVYYCAADLSLSKMVSKITSDMDYWGKGTLVTVSS

OD450 ratio sample/blank [1]: 0.457 | OD450 ratio sample/blank [2]: 0.995 | OD450 ratio sample/blank [3]: 1.01
B7: IL6RPMP105D3 (VHH)
VHH: EVQLEESGGGLVQAGGSLRLSCAASGSIFRINAMGWYRQAPGKQRELVAAAISGGSTNYADFVKGRFTISRDNAKNTVYLQMNSLKPEDTAVYYCNALVVSHNYSDYVPFPDDYWGQGTQVTVSS

OD450 ratio sample/blank [1]: 0.498 | OD450 ratio sample/blank [2]: 0.0331 | OD450 ratio sample/blank [3]: 0.923
B8: IL6RPMP120F4 (VHH)
VHH: EVQLVESGGGLVQTGGSLRLSCAVSGRTDSTASVGWFRQAPGKQREWVVGISSGGSTHYADSVKGRFISSQDDAKNTVYLQMNSLKPEDTAIYYCAIAHGSSTYNYWGQGTQVTVSS

OD450 ratio sample/blank [1]: 1.07 | OD450 ratio sample/blank [2]: 0.795 | OD450 ratio sample/blank [3]: 1.04
B9: IL6RPMP108C10 (VHH)
VHH: EVQLVESGGGLVQPGGSLRLSCTASGRTFSDYDMGWFRQAPGKERECVAVIDTNGDNTLTVGSVKGRFAISRDNAKNTVYLQMNSLLPEDTAVYTCAAGAWSSLRSTAANYWGQGTQVTVSS

OD450 ratio sample/blank [1]: 2.06 | OD450 ratio sample/blank [2]: 0.766 | OD450 ratio sample/blank [3]: 1
B10: IL6RPMP104B9 (VHH)
VHH: B9 VHH with P14A, V50I, T60I, R72S, A100V, S106H

OD450 ratio sample/blank [1]: 2.04 | OD450 ratio sample/blank [2]: 0.725 | OD450 ratio sample/blank [3]: 0.973
B11: IL6RPMP104A8 (VHH)
VHH: B9 VHH with P14A, C47F, D56G, N57H, R72S, L87V, S106K, N110S

OD450 ratio sample/blank [1]: 1.2 | OD450 ratio sample/blank [2]: 0.918 | OD450 ratio sample/blank [3]: 1.04
B18: IL6RPMP107B4 (VHH)
VHH: EVQLVESGGGLVQAGGSLRLSCVASGLRLNMHRMGWFRQAPGKEREFVARIFTDDGDSYYADSVQGRFTISGDNAKNTVYLQMNSLKPEDTGVYFCAAGYMSGAESPIGYDNWGQGTQVTVSS

OD450 ratio sample/blank [1]: 0.139 | OD450 ratio sample/blank [2]: 0.0351 | OD450 ratio sample/blank [3]: 1.01
B19: IL6RPMP120C10 (VHH)
VHH: EVQLVESGGGLVQAGGSLSLSCATSGRTISDDTMAWFRQAPGKEREFVAIITFNGARTHYSDSVRDRFTISRDNAKNTVYLQMNSLKSEDTAVYYCAASTKYYSSTYNYIHPAFYDIWGQGTQVTVSS

OD450 ratio sample/blank [1]: 2.12 | OD450 ratio sample/blank [2]: 0.859 | OD450 ratio sample/blank [3]: 0.943
B20: IL6RPMP103A5 (VHH)
VHH: EVQLVESGGGLVQAGDSLRLSCVASGLPFSTLHMGWFRQAPGKEHESVSAISSDGGSEYYAGSVKGRFTISRDNAKNTVYLQMNSLKPEDTAVYYCAADPRRIGANIKYSDYWGQGTQVTVSS

OD450 ratio sample/blank [1]: 1.76 | OD450 ratio sample/blank [2]: 0.81 | OD450 ratio sample/blank [3]: 1.02
B21: IL6RPMP103B2 (VHH)
VHH: EVQLVESGGGLVQPGGSLRLSCAASGSTFSINMMAWYCQAPGKQRELVASISSGGGINYADSVKGRFTISRDYAENSVDLQMNSLKPEDTAVYYCNARGTYLNGDHYSTNYNSWGQGTQVTVSS

OD450 ratio sample/blank [1]: 0.355 | OD450 ratio sample/blank [2]: 0.0821 | OD450 ratio sample/blank [3]: 0.98
B25: IL6RPMP103D7 (VHH)
VHH: EVQLVESGGGLVEAGGSLRLSCAAAGRTLSSYSMAWFRQAPGKEREFVAIIRGNPSRTYHSDSVKGRFTASRDNAKNTVYLQMNRLEPEDTAVYYCAADPPPFASDYSAPQSYDYWGQGTQVTVSS

OD450 ratio sample/blank [1]: 0.438 | OD450 ratio sample/blank [2]: 0.904 | OD450 ratio sample/blank [3]: 1.06
B26: IL6RPMP107C3 (VHH)
VHH: EVQLVESGGGLVQAGGSLNLSCNASGDIGSINAMGWHRQAPGQQREWVAVITDTDSTIYPDSVKGRFAISRDGAKNTVHLRMSSLKPEDTAVYYCNAYQAGWGDYWGQGTQVTVSS

Further lines, the binder ahead of its results:

B4: IL6RPMP101A1 (VHH)
VHH: B3 VHH
OD450 ratio sample/blank [1]: 0.508 | OD450 ratio sample/blank [2]: 0.521 | OD450 ratio sample/blank [3]: 0.989

B5: IL6RPMP102G3 (VHH)
VHH: EVQLVESGGGLVQAGGSLRLSCAASGSIDRINAMGWYRQAPGKQRDFLAVITDGDKTLYADSVKGRFTISNDNAKNTVYLQMNSLKPEDTAVYYCNAYQAGWGDYWGQGTQVTVSS
OD450 ratio sample/blank [1]: 1.76 | OD450 ratio sample/blank [2]: 1.32 | OD450 ratio sample/blank [3]: 0.968

B6: IL6RPMP101B3 (VHH)
VHH: B7 VHH with E5V
OD450 ratio sample/blank [1]: 0.402 | OD450 ratio sample/blank [2]: 1.05 | OD450 ratio sample/blank [3]: 0.972

B12: IL6RPMP101D6 (VHH)
VHH: B9 VHH with P14A, V50I, T60I, R72S, A100V, S106H
OD450 ratio sample/blank [1]: 1.09 | OD450 ratio sample/blank [2]: 0.731 | OD450 ratio sample/blank [3]: 0.948

B13: IL6RPMP101G3 (VHH)
VHH: B9 VHH with P14A, V50I, T60I, R72S, A100V, S106H
OD450 ratio sample/blank [1]: 1.08 | OD450 ratio sample/blank [2]: 0.773 | OD450 ratio sample/blank [3]: 0.892

B14: IL6RPMP101B2 (VHH)
VHH: B9 VHH with P14A, S30T, C47V, V50I, R72S, S103A, S106R, T107S, A108V
OD450 ratio sample/blank [1]: 1.09 | OD450 ratio sample/blank [2]: 0.727 | OD450 ratio sample/blank [3]: 0.909

B15: IL6RPMP101A3 (VHH)
VHH: B9 VHH with P14A, S17P, S30T, C47V, V50I, R72S, S103A, S106R, T107S, A108V
OD450 ratio sample/blank [1]: 1.08 | OD450 ratio sample/blank [2]: 0.687 | OD450 ratio sample/blank [3]: 0.946

B16: IL6RPMP101G11 (VHH)
VHH: EVQLVESGGGLVQPGGSLRLSCAASASGFTLDYYAIGWFRQAPGKEREGVSCISSTDGSTYYADSVKGRFTISRDNAKNTVYLQMNSLNPEDTGVYTCAAVLTTAQAMGVPTRSYEYDYWGQGTQVTVSS
OD450 ratio sample/blank [1]: 0.227 | OD450 ratio sample/blank [2]: 0.0538 | OD450 ratio sample/blank [3]: 0.468

B17: IL6RPMP103A2 (VHH)
VHH: EVQLVESGGGLVQPGGSLRLSCAASGSIFSINTMGWYRQVPGKQRELVATVRSGSITNYADSVQDQFTITRDIDENTVYLQMNSLKPEDTAVYYCLTRASVPGRGYQDYWGQGTQVTVSS
OD450 ratio sample/blank [1]: 2.04 | OD450 ratio sample/blank [2]: 1.09 | OD450 ratio sample/blank [3]: 0.993

B22: IL6RPMP101G1 (VHH)
VHH: EVQLVESGGGLVQPGGSLRLSCAASGGTLDYYAIGWFRQAPGKEREGVSCISSSDGSTYYASSVKGRFTVSRDKAKNTVYLQMNSLKPEDTAVYYCAFVFTTAQAMGVPNNPYEYDFWGQGTQVTVSS
OD450 ratio sample/blank [1]: 0.148 | OD450 ratio sample/blank [2]: 0.0937 | OD450 ratio sample/blank [3]: 0.639

B23: IL6RPMP101F6 (VHH)
VHH: EVQLVESGGGLVQAGGSLRLSCAASGSIFSIKAMGWYRQAPGKQRELVARITSGGSTYYADSVKGRFTISRDNAKNTVYLQMNSLKPEDTAVFYCNAIVTDSDYDLGNDYWGQGTQVTVSS
OD450 ratio sample/blank [1]: 0.0703 | OD450 ratio sample/blank [2]: 0.0273 | OD450 ratio sample/blank [3]: 0.947

B24: IL6RPMP100D11 (VHH)
VHH: EVQLVESGGGLVQAGDSLRLSCLASGRSFKDDAMGWFRQAPGKEREFVSGIDWRGNIVDAESVKGRFTISRENAKNTLYLQMNHLKPEDTAVYYCAASSVFSDLRYRKNPKYWGQGTQVTVSS
OD450 ratio sample/blank [1]: 1.9 | OD450 ratio sample/blank [2]: 0.962 | OD450 ratio sample/blank [3]: 0.969
